Test results: patent US20180148496A1 (HUAHUI HEALTH, published 2018)

How the values were obtained:
[1] = biological target: pre-S1 domain of the L envelope protein on HBV (genotype B) virus (Hepatitis B virus genotype B); experiment: cell-based or functional assay
[2] = biological target: pre-S1 domain of the L envelope protein on HBV (genotype D) virus (Hepatitis B virus genotype D); experiment: cell-based or functional assay
[3] = biological target: pre-S1 domain of the L envelope protein on HBV (genotype C) virus (Hepatitis B virus genotype C); experiment: cell-based or functional assay
[4] = biological target: T1, NC36b: peptide comprising residues 4-38 of the pre-S1 domain of HBV L protein with a biotin modification at … (Hepatitis B virus (genotype  …, C-terminal K-Biotin)); experiment: ELISA on peptide captured by streptavidin
T1 peptide: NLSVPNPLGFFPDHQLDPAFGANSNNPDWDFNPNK

B1: A14 (antibody, V domains shown)
VH: QVQLQQSGPGLVKPSQTLSLTCAISGDSVSSNSAAWNWIRQSPSRGLEWLGRTYYRSKWYNDYAVSVKSRITINPDTSKNQFSLQLNSVTPEDTAVYYCARGTRWGMDVWGQGTLVTVSS
VL: QSVLTQPPSASGTPGQRVTISCSGSSSNIGSYYVYWYQQFPGTAPKLLIYGNNQRPSGVPDRFSGSKSGTSASLAITGLQAEDEADYYCQSYDSSLSGVIFGGGTKLTVL
- IC50 of HBV neutralization, genotype B [1]: 0.08 nM
- HBV (genotype D) neutralization activity, against HBIG [2]: > 1000 fold
- IC50 of HBV neutralization, genotype D [2]: 0.01 nM
- IC50 of HBV neutralization, genotype C [3]: 0.03 nM

B2: #8 (antibody, V domains shown)
VH: QVQLQQSGPGLVKPSQTLSLTCAISGDSVSSNSAAWNWIRQSPSRGLEWLGRTYYRSKWYNDYAVSVKSRITINPDTSKNQFSLQLNSVTPEDTAVYYCARGTRWGMDVWGQGTLVTVSS
VL: QSVVTQPPSVSAAPGQKVTISCSGSSSNIGNYYVSWYQHLPGTAPKLLIYDNAKRPSGIPDRFSGSKSGTSATLGITGLRAEDEADYYCQSYDNSLSGLVFGGGTKLTVL
- HBV (genotype D) neutralization, against A14 [2]: 5 fold

B3: 2H5 (antibody, V domains shown)
VH: QVQLQQSGPGLVKPSQTLSLTCGISGDSVSSKSAAWNWIRQSPSRGLEWLGRTYYRSKWHNDYAVSVKSRITINPDTSKNQFSLQLNSVTPEDTAVYYCARGQMGALDVWGQGTTVTVSS
VL: QSVLTQPPSASGTPGQRVTISCSGSSSNIGSYYVYWYQQFPGTAPKLLIYGNNQRPSGVPDRFSGSKSGTSASLAITGLQAEDEADYYCQSYDSSLSGVIFGGGTKLTVL
- IC50 in HBV infection assay, against KR127 [2]: 11 fold

B4: m36 (antibody, V domains shown)
VH: QMQLVQSGGGLVQPGRSLRLSCAASGFTFDDYAMHWVRQAPGKGLEWVSGISWNSGSIGYADSVKGRFTISRDNAKNSLYLQMNSLRAEDTALYYCAKTSYGGAFDIWGQGTMVTVSS
VL: QPVLTQSPSASGTPGQRVTISCSGNTSNIGSYYAYWYQQLPGTAPKLLIYDNNQRPSGIPARFSGSKSGTSASLAISGLQSEDEADYYCATWDDSLNGPVFGGGTKVTVL
- binding result [4]: binds

B5: m1Q (antibody, V domains shown)
VH: QVQLVESGGGVVQPGRSLRLSCAASGFTFSSYAMHWVRQAPGKGLEQVAVISYDGSNKYYVDSVKGRFTISRDNSKNTLYLQMNSLRAEDTAVYYCARSTYGMDVWGQGTTVTVSS
VL: DVVMTQSPLSLPVTLGQSASISCRSSQSLVHSDGNTYLNWFQQRPGQSPRRLIYKVSNRDSGVPDRFSGSGSDTDFTLEISRVEAEDVGIYYCMQGTHWWTFGQGTKLDIK
notes: also called m10Q (label of the VL entry)
- binding result [4]: binds
